*1 amine or outer side, *2 acyl side, *3 side chain or, on linkers, in order; H or OH if unused. Bridges are numbered along the chain shown (N, C = ends). Where no end group is shown, it is not given here. [ ]: non-standard residue; d: D form. 124TriAz = 3-(1,2,4-triazol-1-yl)-alanine, O=C([C@H](Cn1cncn1)N[*:1])[*:2]; TATA = O=C(CC[*:1])N1CN(C(=O)CC[*:2])CN(C(=O)CC[*:3])C1; HGln = homoglutamine, NC(=O)CCC[C@H](N[*:1])C(=O)[*:2]; Trp(5-F) = N[C@@H](Cc1c[nH]c2ccc(F)cc12)C(=O)O; Ala(4-thiazolyl) = N[C@@H](Cc1cscn1)C(=O)O; 1Nal = N[C@@H](Cc1cccc2ccccc12)C(=O)O; 2Nal = N[C@@H](Cc1ccc2ccccc2c1)C(=O)O; Dopa = N[C@@H](Cc1ccc(O)c(O)c1)C(=O)O; Gly(cPent) = N[C@H](C(=O)O)C1CCCC1; Ser(ΨH,HPro) = O=C(O)[C@@H]1COCN1; Ala(cPr) = N[C@@H](CC1CC1)C(=O)O; Hyp = O=C(O)[C@@H]1C[C@@H](O)CN1; NMeT = CN[C@H](C(=O)O)[C@@H](C)O; hArg = N=C(N)NCCCC[C@H](N)C(=O)O; 2Thi = N[C@@H](Cc1cccs1)C(=O)O; NMeC = CN[C@@H](CS)C(=O)O; hSer = N[C@@H](CCO)C(=O)O; Aib = CC(C)(N)C(=O)O; βAla = NCCC(=O)O; Sar = CNCC(=O)O
T1: human Nectin-4 (human, UniProt Q96NY8 32-349)
T1 construct: a Gly32-Ser349 FLAG construct is described only under the SPR assay; also called PVRL4
T1 sequence (looked up): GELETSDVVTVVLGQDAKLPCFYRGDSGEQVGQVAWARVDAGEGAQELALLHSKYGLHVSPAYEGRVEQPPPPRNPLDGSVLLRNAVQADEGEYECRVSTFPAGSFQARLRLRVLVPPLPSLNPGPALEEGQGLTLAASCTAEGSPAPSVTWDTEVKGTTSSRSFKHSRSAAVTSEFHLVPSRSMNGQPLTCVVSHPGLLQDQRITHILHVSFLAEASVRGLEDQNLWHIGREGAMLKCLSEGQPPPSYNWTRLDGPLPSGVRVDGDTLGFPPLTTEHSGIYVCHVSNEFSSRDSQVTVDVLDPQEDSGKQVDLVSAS

B1: BCY7973 (peptide)
peptide: Ac-CPF[dD][NMeC]M[hArg]NWSTPIWC
modifications: linker 1-5-15 via TATA
B2: BCY3387 (peptide)
peptide: SDNCPFGCMKDWSWPIWCA
modifications: linker 4-8-18 via TATA
B3: BCY7877 (peptide)
peptide: Ac-CPF[dD]CM[hArg][2Thi]WSTPIWC
modifications: linker 1-5-15 via TATA
B4: BCY433 (peptide)
peptide: DDWCAPLDDYWCGRICA
modifications: linker 4-12-16 via TATA
notes: also called 80-10-11-T01
B5: BCY7915 (peptide)
peptide: Ac-CPF[dD]C[Gly(cPent)][hArg]NWSTPIWC
modifications: linker 1-5-15 via TATA
B6: BCY432 (peptide)
peptide: ACAPLDDYWCGRICA
modifications: linker 2-10-14 via TATA
B7: BCY7891 (peptide)
peptide: Ac-CPF[dD]CM[hArg]N[Trp(5-F)]STPIWC
modifications: linker 1-5-15 via TATA
B8: BCY7914 (peptide)
peptide: Ac-CPF[dD]C[HGln][hArg]NWSTPIWC
modifications: linker 1-5-15 via TATA
B9: BCY7887 (peptide)
peptide: Ac-CPF[dD]CM[hArg]NWS[Dopa]PIWC
modifications: linker 1-5-15 via TATA
B10: BCY7902 (peptide)
peptide: Ac-CPF[dF]CM[hArg]NWSTPIWC
modifications: linker 1-5-15 via TATA
B11: BCY7906 (peptide)
peptide: Ac-CPF[dL]CM[hArg]NWSTPIWC
modifications: linker 1-5-15 via TATA
B12: BCY8122 (peptide)
peptide: {Ac-βAla}-[Sar][Sar][Sar][Sar][Sar]CP[1Nal][dD]CM[hArg]DWSTP[Hyp]WC
modifications: linker 6-10-20 via TATA
B13: BCY8124 (peptide)
peptide: Ac-CP[1Nal][dD]CM[hArg]NWSTP[Hyp]WC
modifications: linker 1-5-15 via TATA
B14: BCY8121 (peptide)
peptide: {Ac-βAla}-[Sar][Sar][Sar][Sar][Sar]CP[1Nal][dD]CM[hArg]HWSTP[Hyp]WC
modifications: linker 6-10-20 via TATA
B15: BCY8120 (peptide)
peptide: {Ac-βAla}-[Sar][Sar][Sar][Sar][Sar]CP[1Nal][dD]CM[hArg]NWSTP[Hyp]WC
modifications: linker 6-10-20 via TATA
B16: BCY7886 (peptide)
peptide: Ac-CP[Dopa][dD]CM[hArg]NWSTPIWC
modifications: linker 1-5-15 via TATA
B17: BCY8123 (peptide)
peptide: {Ac-βAla}-[Sar][Sar][Sar][Sar][Sar]CP[1Nal][dD]CM[hArg]DWSTPIWC
modifications: linker 6-10-20 via TATA
B18: BCY8211 (peptide)
peptide: Ac-CP[1Nal][dD]CL[hArg]DWSTPIWC
modifications: linker 1-5-15 via TATA
B19: BCY8127 (peptide)
peptide: Ac-CP[1Nal][dD]CM[hArg]DWSTPIWC
modifications: linker 1-5-15 via TATA
B20: BCY8215 (peptide)
peptide: Ac-CP[1Nal][dR]CM[hArg]DWSTPIWC
modifications: linker 1-5-15 via TATA
B21: BCY8041 (peptide)
peptide: Ac-C[Aib]F[dD]CM[hArg]NWSTPIWC
modifications: linker 1-5-15 via TATA
B22: BCY8028 (peptide)
peptide: Ac-DDDCPF[dD]CM[hArg]NWSTPIWC
modifications: linker 4-8-18 via TATA
B23: BCY3388 (peptide)
peptide: DTACPFGCMRGWSWPIWCA
modifications: linker 4-8-18 via TATA
B24: BCY3386 (peptide)
peptide: DDACPFGCMETWSWPIWCA
modifications: linker 4-8-18 via TATA
B25: BCY7912 (peptide)
peptide: Ac-CPF[dD]CM[hArg]NWSTP[Ala(cPr)]WC
modifications: linker 1-5-15 via TATA
B26: BCY8044 (peptide)
peptide: Ac-CAPLSDYWCNRIC
modifications: linker 1-9-13 via TATA
B27: BCY7997 (peptide)
peptide: Ac-QK[2Nal]CAPLSDYWCNRIC
modifications: linker 4-12-16 via TATA
B28: BCY7907 (peptide)
peptide: Ac-CPF[dS]CM[hArg]NWSTPIWC
modifications: linker 1-5-15 via TATA
B29: BCY8031 (peptide)
peptide: Ac-CP[2Nal][dD]CM[hArg]NWSTPIWC
modifications: linker 1-5-15 via TATA
B30: BCY8037 (peptide)
peptide: Ac-CPF[dD]CM[hArg]NWSTP[Hyp]WC
modifications: linker 1-5-15 via TATA
B31: BCY8000 (peptide)
peptide: Ac-QKWCAPLSDYWC[dD]RIC
modifications: linker 4-12-16 via TATA
B32: BCY7820 (peptide)
peptide: Ac-CPF[dK]CM[hArg]NWSTPIWC
modifications: linker 1-5-15 via TATA
B33: BCY7884 (peptide)
peptide: Ac-CPF[dD]CM[hArg]NWST[Ser(ΨH,HPro)]IWC
modifications: linker 1-5-15 via TATA
B34: BCY7883 (peptide)
peptide: Ac-CPF[dD]CM[hArg]NWS[124TriAz]PIWC
modifications: linker 1-5-15 via TATA
B35: BCY8089 (peptide)
peptide: Ac-CPF[dK](MeO‑dPEG12)CM[hArg]NWSTPIWC
modifications: linker 1-5-15 via TATA
B36: BCY7979 (peptide)
peptide: Ac-CPF[dD]C[hArg]NWS[NMeT]PIWC
modifications: linker 1-5-14 via TATA
B37: BCY7876 (peptide)
peptide: Ac-C[Ser(ΨH,HPro)]F[dD]CM[hArg]NWSTPIWC
modifications: linker 1-5-15 via TATA
B38: BCY8030 (peptide)
peptide: Ac-CP[1Nal][dD]CM[hArg]NWSTPIWC
modifications: linker 1-5-15 via TATA
B39: BCY7996 (peptide)
peptide: Ac-QK[1Nal]CAPLSDYWCNRIC
modifications: linker 4-12-16 via TATA
B40: BCY7538 (peptide)
peptide: Ac-CPF[dA]CMKNWSWPIWC
modifications: linker 1-5-15 via TATA
B41: BCY7819 (peptide)
peptide: Ac-CPF[dD]CMKNWSTPIWC
modifications: linker 1-5-15 via TATA
B42: BCY7879 (peptide)
peptide: Ac-CPF[dD]CM[hArg][Ala(4-thiazolyl)]WSTPIWC
modifications: linker 1-5-15 via TATA
B43: BCY7904 (peptide)
peptide: Ac-CPF[dQ]CM[hArg]NWSTPIWC
modifications: linker 1-5-15 via TATA
B44: BCY7998 (peptide)
peptide: Ac-QKWCAPLSDY[1Nal]CNRIC
modifications: linker 4-12-16 via TATA
B45: BCY7903 (peptide)
peptide: Ac-CPF[dE]CM[hArg]NWSTPIWC
modifications: linker 1-5-15 via TATA
B46: BCY7892 (peptide)
peptide: Ac-CPF[dD]CM[hArg]NWSTPI[Trp(5-F)]C
modifications: linker 1-5-15 via TATA
B47: BCY7881 (peptide)
peptide: Ac-CPF[dD]CM[hArg][124TriAz]WSTPIWC
modifications: linker 1-5-15 via TATA
B48: BCY7908 (peptide)
peptide: Ac-CPF[dD]CM[hArg]NW[hSer]TPIWC
modifications: linker 1-5-15 via TATA

molecular target: T1, human Nectin-4; assay: FP competition, tracer SEQ ID NO 217
Description: Peptides were diluted to an appropriate concentration in assay buffer as described in the direct binding assay with a maximum of 5% DMSO, then serially diluted 1 in 2. […] Measurements were conducted as for the direct binding assay, however the gain was determined prior to the first measurement. Data analysis was in Systat Sigmaplot version 12.0 where the mP values were fit to a user defined cubic equation to generate a Ki value: […]

Binder | Ki
B1 | 4 nM
B2 | 234 nM
B3 | 9.5 nM
B4 | 69.4 nM
B5 | 20 nM
B6 | 1100 nM
B7 | 5 nM
B8 | 62 nM
B9 | 21.4 nM
B10 | 4 nM
B11 | 6 nM
B12 | 3 nM
B13 | 3.5 nM
B14 | 4 nM
B15 | 3 nM
B16 | 15 nM
B17 | 4.5 nM
B18 | 4.5 nM
B19 | 2.4 nM
B20 | 3 nM
B21 | 39.1 nM
B22 | 61.9 nM
B23 | 129 nM
B24 | 80.2 nM

Binder | Ki
B25 | 9 nM
B26 | 170 nM
B27 | 22 nM
B28 | 10 nM
B29 | 3.6 nM
B30 | 5.6 nM
B31 | 60 nM
B32 | 10 nM
B33 | 223 nM
B34 | 189 nM
B35 | 8 nM
B36 | 191 nM
B37 | 59.2 nM
B38 | 2.5 nM
B39 | 21 nM
B40 | 8.5 nM
B41 | 12 nM
B42 | 12.5 nM
B43 | 8 nM
B44 | 135 nM
B45 | 41 nM
B46 | 9.5 nM
B47 | 14.4 nM
B48 | 20 nM

Reference: patent publication US20210269480A1 (published 2021)
